We go through five molecules from paper PMC4980431, “Ctf4 Is a Hub in the Eukaryotic Replisome that Links Multiple CIP-Box Proteins to the CMG Helicase” (Molecular Cell, 2016).

Data set [1] concerns the target Sld5 CIP-box (Saccharomyces cerevisiae) (UniProt Q03406). The settings on record: cited from earlier work.
Data set [2] has as its target Pol1 CIP-box (Saccharomyces cerevisiae) (UniProt P13382). The settings on record: cited from earlier work.
In data set [3] the target is T1, Ctf4 471–927 (budding yeast, UniProt Q01454 471-927).
T1 construct: also called Ctf4CTD; source: purified Ctf4CTD protein
T1 sequence (looked up): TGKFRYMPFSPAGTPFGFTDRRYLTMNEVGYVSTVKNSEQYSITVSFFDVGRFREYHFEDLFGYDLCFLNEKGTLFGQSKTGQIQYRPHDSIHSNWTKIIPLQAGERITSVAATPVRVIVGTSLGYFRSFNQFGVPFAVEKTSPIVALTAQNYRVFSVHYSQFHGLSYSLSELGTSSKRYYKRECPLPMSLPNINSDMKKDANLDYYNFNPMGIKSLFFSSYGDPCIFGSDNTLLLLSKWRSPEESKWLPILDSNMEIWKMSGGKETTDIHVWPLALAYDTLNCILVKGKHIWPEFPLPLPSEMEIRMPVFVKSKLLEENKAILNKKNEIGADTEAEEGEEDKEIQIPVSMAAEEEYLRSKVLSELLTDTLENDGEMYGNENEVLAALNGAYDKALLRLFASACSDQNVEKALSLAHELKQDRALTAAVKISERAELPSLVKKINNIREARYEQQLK
Briefly: native MS; 5-fold or 10-fold molar excess of peptide mixed with 100 μM Ctf4CTD in 500 mM ammonium acetate, at least 30 min. The note with it: both partners purified.

For a further data set, the system named is Dpb2. Kind of data set: Yeast two-hybrid with Dpb2. The data set is classed as binding, budding yeast. How it is done:
(§1) Yeast growth, two-hybrid analysis, and immunoprecipitation experiments were performed as described in detail previously ([Maculins et al., 2015], [Maric et al., 2014]). A two-hybrid screen against amino acids 461–927 of Ctf4 was performed by the company Hybrigenics.

The subject of a further data set is Dna2. Briefly: Yeast two-hybrid with Dna2. The data set is classed as binding, budding yeast. Here is the method: as §1
For the next data set, the system named is Pol1. Briefly: Yeast two-hybrid with Pol1. The data set is classed as binding, budding yeast. Here is the method:
as §1

The next data set can be described thus: SEC-MALS. In kind it is physicochemical. The note with it: residues 471–927, 2 mg/ml, 20 mM HEPES pH 7.2, 160 mM NaCl. How it is done:
100 μl of Ctf4CTD 4E mutant protein (with mutated binding site for type I CIP-boxes) at a concentration of 2 mg/ml was loaded onto a Superdex S200 HR 10/300 gel-filtration column (GE Healthcare) in 20 mM HEPES pH 7.2, 160 mM NaCl at a flow rate of 0.5 ml/min. The column was controlled using an Äkta Purifier System (GE Healthcare) and was linked to a DAWN 8^+ 8-angle light scattering detector (Wyatt Technology) with a fused silica sample cell using a laser wavelength of 664 nm. The change in the refractive index was detected using an Optilab T-rEX refractometer with extended range (Wyatt Technology) using a wavelength of 658 nm. Data collection and analysis was carried out using the ASTRA6 software package (Wyatt Technology). Molecular weight determination across the sample peak was carried out using a Zimm-plot derived global fitting algorithm with a fit degree of 1 and a dn/dc value of 0.1850 ml/g.
(SEC sorts molecules by how far they enter the pores of the column.)

Another data set concerns Tof2. Briefly: Yeast two-hybrid with Tof2. The data set is classed as binding, budding yeast. Here is the method: as §1
The test system of another data set is CMG helicase. Kind of data set: Co-purification with CMG helicase from yeast cell extracts. In kind it is cell-based, budding yeast. The settings on record: extracts of S phase yeast cells; immunoprecipitation, immunoblotting. How it is done:
(D) Cultures of ctf4-4E MCM4-9MYC (YFV13) and MCM4-9MYC control cells (YSS75) were synchronized in G1-phase at 30°C and then released into S phase for 20 min. The Mcm4-9MYC was isolated from cell extracts by immunoprecipitation and the associated proteins monitored by immunoblotting. (E) ctf4-4E is synthetic lethal with mrc1Δ. The cells were processed as in Figure 1A, and the photos in the lower images were taken after 20 hr growth at 30°C (the scale bars represent 50 μm). See also Figure S2. TEXT PRINTED IN THE PICTURE: (C) Ctf4-4E (471-927): 162 kDa
as §1
A general note: In western blotting, separated proteins are transferred to a membrane and probed.

Data set [4] addresses T1, Ctf4 471–927. Kind of data set: fluorescence polarisation; fluorescence anisotropy; serial dilutions of Ctf4CTD with 40 nM (Sld5, Tof2) or 50 nM (Dna2) fluorescein-labeled peptide; 20 mM HEPES pH 7.2, 140 mM KCl, 5% glycerol, 25°C. The settings on record: both partners purified. (In fluorescence polarisation assays a small probe gives low polarisation when free and higher when bound to something large.)

The target of data set [5] is T1, Ctf4 471–927. Kind of data set: pull-down; GST fusion on Glutathione Sepharose beads; 500 μl purified Ctf4CTD at 2 mg/ml, 1 hr at 4°C; 20 mM HEPES pH 7.2, 150 mM NaCl, 5% glycerol, 0.1% Igepal CA-630, 1 mM TCEP, 1% BSA; SDS-PAGE. The note with it: both partners purified.

Entries after “also recorded” stand apart in the source; their conditions may differ. Where no end group is shown, it is not given here. fluorescein = amino-terminal fluorescein label

In the case of Ctf4 (from UniProt Q01454), the Kd was 5 µM in data set [1] and 25 µM in data set [2].

B1: Tof2 peptide 497–517 (peptide)
peptide: fluorescein-SHAKDVKIQETIRKLNRFKPT
notes: Tof2, yeast, amino acids 497-517; also called Tof2 CIP-box peptide; peptide containing the Tof2 CIP-box; source: synthetic peptide (Cambridge Peptides)
As for B1, the binding result in the data set with Ctf4 471–927 [3] was “binds”.

B2: Ctf4-4E: Ctf4 L867E-A871E-A897E-I901E, mutated binding site for type I CIP-boxes (protein, UniProt Q01454 2-927, looked up, variant L867E A871E A897E I901E)
DNA polymerase alpha-binding …: VSVIDKLVFDFGGKTLVSLAPDNNTLCVANKNGLTKILKTNNPEEEPETLDSSKLVSSIKCYSNSHFLMTTMQGDALRYNIDSSQEELLARFALPLRDCCVIHSGKMAVFGGDDLELILLELDDETHKKHAIKIDEQVSQISYNSQMNILAVSMINGKVQIFSLTSTIPNKVHELNDYIVANSYDDTHRDKILSNMMDDIDKDNDNDLSETADPDENNVADPEFCAANRICTRVAWHPKGLHFALPCADDTVKIFSIKGYSLQKTLSTNLSSTKAHFIDLQFDPLRGTYIAAVDLNNKLTVWNWETSEIHYTREFKRKITNIAWKIQADSKTLDLVLGTWSGSIAIVQNLAESVVSNIPDQSVAESSTKHGLFVDSESDLENLEGNDDINKSDKLFSDITQEANAEDVFTQTHDGPSGLSEKRKYNFEDEEDFIDDDDGAGYISGKKPHNEHSYSRVHKTHSFPISLANTGKFRYMPFSPAGTPFGFTDRRYLTMNEVGYVSTVKNSEQYSITVSFFDVGRFREYHFEDLFGYDLCFLNEKGTLFGQSKTGQIQYRPHDSIHSNWTKIIPLQAGERITSVAATPVRVIVGTSLGYFRSFNQFGVPFAVEKTSPIVALTAQNYRVFSVHYSQFHGLSYSLSELGTSSKRYYKRECPLPMSLPNINSDMKKDANLDYYNFNPMGIKSLFFSSYGDPCIFGSDNTLLLLSKWRSPEESKWLPILDSNMEIWKMSGGKETTDIHVWPLALAYDTLNCILVKGKHIWPEFPLPLPSEMEIRMPVFVKSKLLEENKAILNKKNEIGADTEAEEGEEDKEIQIPVSMAAEEEYLRSKVLSELLTDTLENDGEMYGNENEVLAALNGAYDKALERLFESACSDQNVEKALSLAHELKQDRALTEAVKESERAELPSLVKKINNIREARYEQQLK
As for B2, the “interaction with Dpb2 (in words)” value in the data set with Dpb2 was “still able to interact”. Also, in the data set on Dna2, the “interaction with Dna2 (in words)” value is reported as “unable to interact”. In addition, the “interaction with Pol1 (in words)” value in the data set on Pol1 is listed as “does not interact with the amino terminus of Pol1; also recorded: unable to interact”. Further, in the data set “SEC-MALS” (SEC-MALS), the “oligomeric state (in words)” value was “able to form a trimer in vitro; also recorded: trimeric”. In addition, the “molecular mass by SEC-MALS” value in the data set “SEC-MALS” (printed in Figure 2C) is given as 162 kDa. In addition, the “interaction with Tof2 (in words)” value with Tof2 is reported as “still able to interact”. The “association with CMG helicase (in words)” value in the data set on CMG helicase is “unable to interact with the CMG helicase”.

B3: Dna2 peptide 207–223 (peptide)
peptide: fluorescein-SLRNIDDILDDIEGDLT
notes: Dna2, yeast, residues 207-223; also called Dna2 CIP-box peptide; isolated peptide containing the Dna2 CIP-box; source: synthetic peptide (Cambridge Peptides)
Molecule B3 registered a Kd in the data set with Ctf4 471–927 [4] of 230 µM.

B4: GST-Dna2 CIP-box 207–223 (domain or fragment, yeast)
chain: SLRNIDDILDDIEGDLT
notes: Dna2, budding yeast, residues 207-223 (CIP-box)
For the molecule B4, in the data set with Ctf4 471–927 [5], the binding result is reported as “binds”.

For orientation: Kd means a measure of binding affinity in units of concentration.
